How the values were obtained:
Test in all cases: EMSA
Nab2;Tbp = target: T1, Nab2;Tbp (Saccharomyces cerevisiae;Saccharomyces …, UniProt P32505;P13393 1-525;1-240, |)
T1 sequence 1: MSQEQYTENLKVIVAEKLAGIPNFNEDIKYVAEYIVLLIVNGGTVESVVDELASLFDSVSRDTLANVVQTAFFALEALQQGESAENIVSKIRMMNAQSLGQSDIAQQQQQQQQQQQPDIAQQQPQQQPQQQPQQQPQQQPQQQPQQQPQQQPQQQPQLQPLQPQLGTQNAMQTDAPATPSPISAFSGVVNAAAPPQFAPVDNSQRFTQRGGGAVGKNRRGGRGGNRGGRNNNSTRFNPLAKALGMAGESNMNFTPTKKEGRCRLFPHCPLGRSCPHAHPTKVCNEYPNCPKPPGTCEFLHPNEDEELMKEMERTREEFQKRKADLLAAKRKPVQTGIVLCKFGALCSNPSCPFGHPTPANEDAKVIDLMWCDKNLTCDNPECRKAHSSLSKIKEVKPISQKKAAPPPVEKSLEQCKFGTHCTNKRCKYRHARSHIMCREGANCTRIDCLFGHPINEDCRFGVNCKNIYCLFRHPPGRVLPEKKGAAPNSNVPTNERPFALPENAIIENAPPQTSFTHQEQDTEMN
T1 sequence 2: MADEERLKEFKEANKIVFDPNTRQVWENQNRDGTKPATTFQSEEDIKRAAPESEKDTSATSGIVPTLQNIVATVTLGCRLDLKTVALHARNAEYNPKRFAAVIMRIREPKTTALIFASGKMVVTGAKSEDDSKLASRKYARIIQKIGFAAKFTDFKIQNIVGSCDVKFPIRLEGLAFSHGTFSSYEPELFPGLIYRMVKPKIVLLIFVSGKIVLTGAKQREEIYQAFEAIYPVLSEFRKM

Nab2;Tbp;Brf1;Bdp1 = Nab2;Tbp;Brf1;Bdp1 (Saccharomyces cerevisiae;Saccharomyces …, UniProt P32505;P13393;P29056;P46678 1-525;1-240;1-596;1-594, |||)
Nab2;Tbp;Brf1;Bdp1, sequence (P46678 whole entry, one chain of several): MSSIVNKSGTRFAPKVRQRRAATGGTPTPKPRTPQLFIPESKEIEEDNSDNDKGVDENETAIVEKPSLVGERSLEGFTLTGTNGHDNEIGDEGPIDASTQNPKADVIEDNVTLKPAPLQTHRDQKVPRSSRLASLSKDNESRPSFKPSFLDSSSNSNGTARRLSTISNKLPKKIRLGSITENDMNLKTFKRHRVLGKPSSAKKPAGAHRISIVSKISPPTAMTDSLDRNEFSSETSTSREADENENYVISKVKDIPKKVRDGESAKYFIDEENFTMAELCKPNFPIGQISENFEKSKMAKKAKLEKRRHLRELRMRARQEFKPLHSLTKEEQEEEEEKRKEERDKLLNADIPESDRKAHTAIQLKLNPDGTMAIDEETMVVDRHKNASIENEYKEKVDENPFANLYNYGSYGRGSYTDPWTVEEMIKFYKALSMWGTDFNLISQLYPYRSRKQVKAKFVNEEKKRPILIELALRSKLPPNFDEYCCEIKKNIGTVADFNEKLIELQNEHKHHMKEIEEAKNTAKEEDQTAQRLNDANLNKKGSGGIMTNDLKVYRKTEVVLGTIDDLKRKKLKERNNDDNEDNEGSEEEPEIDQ

Nab2;Tbp;Brf1 = target: T2, Nab2;Tbp;Brf1 (Saccharomyces cerevisiae;Saccharomyces …, UniProt P32505;P13393;P29056 1-525;1-240;1-596, ||)
T2 sequence 1: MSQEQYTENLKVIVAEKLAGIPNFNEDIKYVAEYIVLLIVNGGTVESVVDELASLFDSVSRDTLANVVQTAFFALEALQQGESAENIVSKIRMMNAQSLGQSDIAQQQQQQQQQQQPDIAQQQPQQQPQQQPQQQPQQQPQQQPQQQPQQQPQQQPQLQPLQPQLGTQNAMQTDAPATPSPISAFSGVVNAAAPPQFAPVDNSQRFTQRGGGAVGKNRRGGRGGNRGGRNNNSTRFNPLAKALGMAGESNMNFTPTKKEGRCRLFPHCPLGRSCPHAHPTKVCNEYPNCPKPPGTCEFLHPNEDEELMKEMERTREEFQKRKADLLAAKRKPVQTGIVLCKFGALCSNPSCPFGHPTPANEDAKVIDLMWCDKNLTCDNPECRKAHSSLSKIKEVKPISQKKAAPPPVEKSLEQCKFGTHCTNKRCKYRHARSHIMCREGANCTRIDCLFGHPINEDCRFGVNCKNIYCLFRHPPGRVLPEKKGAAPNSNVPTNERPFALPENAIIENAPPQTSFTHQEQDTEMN
T2 sequence 2: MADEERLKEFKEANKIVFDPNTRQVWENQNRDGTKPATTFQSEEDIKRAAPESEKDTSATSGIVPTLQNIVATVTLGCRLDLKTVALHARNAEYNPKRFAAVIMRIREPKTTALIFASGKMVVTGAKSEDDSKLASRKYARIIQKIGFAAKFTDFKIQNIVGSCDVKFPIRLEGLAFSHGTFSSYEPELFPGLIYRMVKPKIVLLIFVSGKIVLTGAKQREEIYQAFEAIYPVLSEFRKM
T2 sequence 3: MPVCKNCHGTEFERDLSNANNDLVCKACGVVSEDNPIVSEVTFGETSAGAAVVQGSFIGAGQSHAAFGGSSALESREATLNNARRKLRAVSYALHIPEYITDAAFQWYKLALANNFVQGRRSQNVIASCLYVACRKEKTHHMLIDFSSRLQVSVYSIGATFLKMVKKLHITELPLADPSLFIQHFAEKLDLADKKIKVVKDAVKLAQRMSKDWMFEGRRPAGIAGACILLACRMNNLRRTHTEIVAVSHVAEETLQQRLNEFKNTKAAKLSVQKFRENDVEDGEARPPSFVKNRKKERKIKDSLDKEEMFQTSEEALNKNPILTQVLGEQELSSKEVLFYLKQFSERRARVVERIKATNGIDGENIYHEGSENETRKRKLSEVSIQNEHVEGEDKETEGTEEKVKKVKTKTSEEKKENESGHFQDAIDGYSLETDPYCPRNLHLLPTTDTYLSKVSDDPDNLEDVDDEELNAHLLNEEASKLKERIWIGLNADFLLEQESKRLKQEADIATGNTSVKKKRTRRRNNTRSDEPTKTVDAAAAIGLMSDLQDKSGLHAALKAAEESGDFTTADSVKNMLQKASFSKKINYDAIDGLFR

Measured: binding result

B1: TA-30-B6 (dsDNA)
DNA 1: GCTGAAATCTCTTTTTCAATTGCTCCGGTGTATAAAGCCGCGGTCCCTTACTCTTTCTTCAACAATTAAATACTC
DNA 2: GAGTATTTAATTGTTGAAGAAAGAGTAAGGGACCGCCCCTTTATTGACCGGAGCAATTGAAAAAGAGATTTCAGC
binds: Nab2;Tbp | Nab2;Tbp;Brf1;Bdp1 | Nab2;Tbp;Brf1

Reference: article PMC4526739
